# B1: Pistol ribozyme (parent)
# chain: GGGUCGUUGUUCCAUAAUCGCGUGGAUAUGGCACGCAAGUUUCUACCGGGCACCGUAAAUGUCCGACUGGAGCCGUUCGGGCGGCUAUAAACAGACCUCAGGCCCGAAGCGUGGCGGCACCUGCCGCCGGUGGUAAAAAAGAUCGGAAGAGCACACGUCU
# Variants of: B1
# Experiment: aptazyme ON/OFF ratio, guanine; higher = stronger switching; co-transcriptional cleavage with and without guanine
row,Variant,aptazyme ON/OFF ratio
1,GGGUCGCAUGCCUAUAAUCGCGUGGAUAUGGCACGCAAGUUUCUACCGGGCACCGUAAAUGUCCGACUGGAGCCGUUCGGGCGGCUAUAAACAGACCUCAGGCCCGAAGCGUGGCGGCACCUGCCGCCGGUGGUAAAAAAGAUCGGAAGAGCACACGUCU [U7C U8A G9U U10G U11C C13U],1.05
2,GGGUCGCAUUAAUAUAAUCGCGUGGAUAUGGCACGCAAGUUUCUACCGGGCACCGUAAAUGUCCGACUGGAGCCGUUCGGGCGGCUAUAAACAGACCUCAGGCCCGAAGCGUGGCGGCACCUGCCGCCGGUGGUAAAAAAGAUCGGAAGAGCACACGUCU [U7C U8A G9U U11A C12A C13U],1.41
3,GGGUCGCAUUAAGAUAAUCGCGUGGAUAUGGCACGCAAGUUUCUACCGGGCACCGUAAAUGUCCGACUGGAGCCGUUCGGGCGGCUAUAAACAGACCUCAGGCCCGAAGCGUGGCGGCACCUGCCGCCGGUGGUAAAAAAGAUCGGAAGAGCACACGUCU [U7C U8A G9U U11A C12A C13G],1.18
4,GGGUCGCAUUAAAAUAAUCGCGUGGAUAUGGCACGCAAGUUUCUACCGGGCACCGUAAAUGUCCGACUGGAGCCGUUCGGGCGGCUAUAAACAGACCUCAGGCCCGAAGCGUGGCGGCACCUGCCGCCGGUGGUAAAAAAGAUCGGAAGAGCACACGUCU [U7C U8A G9U U11A C12A C13A],1.08
5,GGGUCGCAUGGGGAUAAUCGCGUGGAUAUGGCACGCAAGUUUCUACCGGGCACCGUAAAUGUCCGACUGGAGCCGUUCGGGCGGCUAUAAACAGACCUCAGGCCCGAAGCGUGGCGGCACCUGCCGCCGGUGGUAAAAAAGAUCGGAAGAGCACACGUCU [U7C U8A G9U U10G U11G C12G C13G],1.14
6,GGGUCGCAUGGGAAUAAUCGCGUGGAUAUGGCACGCAAGUUUCUACCGGGCACCGUAAAUGUCCGACUGGAGCCGUUCGGGCGGCUAUAAACAGACCUCAGGCCCGAAGCGUGGCGGCACCUGCCGCCGGUGGUAAAAAAGAUCGGAAGAGCACACGUCU [U7C U8A G9U U10G U11G C12G C13A],1.21
7,GGGUCGCAUGGGUAUAAUCGCGUGGAUAUGGCACGCAAGUUUCUACCGGGCACCGUAAAUGUCCGACUGGAGCCGUUCGGGCGGCUAUAAACAGACCUCAGGCCCGAAGCGUGGCGGCACCUGCCGCCGGUGGUAAAAAAGAUCGGAAGAGCACACGUCU [U7C U8A G9U U10G U11G C12G C13U],1.14
8,GGGUCGCAUUAUUAUAAUCGCGUGGAUAUGGCACGCAAGUUUCUACCGGGCACCGUAAAUGUCCGACUGGAGCCGUUCGGGCGGCUAUAAACAGACCUCAGGCCCGAAGCGUGGCGGCACCUGCCGCCGGUGGUAAAAAAGAUCGGAAGAGCACACGUCU [U7C U8A G9U U11A C12U C13U],1.22
9,GGGUCGCAUUAUGAUAAUCGCGUGGAUAUGGCACGCAAGUUUCUACCGGGCACCGUAAAUGUCCGACUGGAGCCGUUCGGGCGGCUAUAAACAGACCUCAGGCCCGAAGCGUGGCGGCACCUGCCGCCGGUGGUAAAAAAGAUCGGAAGAGCACACGUCU [U7C U8A G9U U11A C12U C13G],1.23
10,GGGUCGCAUUAUAAUAAUCGCGUGGAUAUGGCACGCAAGUUUCUACCGGGCACCGUAAAUGUCCGACUGGAGCCGUUCGGGCGGCUAUAAACAGACCUCAGGCCCGAAGCGUGGCGGCACCUGCCGCCGGUGGUAAAAAAGAUCGGAAGAGCACACGUCU [U7C U8A G9U U11A C12U C13A],1.16
11,GGGUCGCAUGGCCAUAAUCGCGUGGAUAUGGCACGCAAGUUUCUACCGGGCACCGUAAAUGUCCGACUGGAGCCGUUCGGGCGGCUAUAAACAGACCUCAGGCCCGAAGCGUGGCGGCACCUGCCGCCGGUGGUAAAAAAGAUCGGAAGAGCACACGUCU [U7C U8A G9U U10G U11G],1.08
12,GGGUCGCAUGGCAAUAAUCGCGUGGAUAUGGCACGCAAGUUUCUACCGGGCACCGUAAAUGUCCGACUGGAGCCGUUCGGGCGGCUAUAAACAGACCUCAGGCCCGAAGCGUGGCGGCACCUGCCGCCGGUGGUAAAAAAGAUCGGAAGAGCACACGUCU [U7C U8A G9U U10G U11G C13A],1.13
13,GGGUCGCAUGGCUAUAAUCGCGUGGAUAUGGCACGCAAGUUUCUACCGGGCACCGUAAAUGUCCGACUGGAGCCGUUCGGGCGGCUAUAAACAGACCUCAGGCCCGAAGCGUGGCGGCACCUGCCGCCGGUGGUAAAAAAGAUCGGAAGAGCACACGUCU [U7C U8A G9U U10G U11G C13U],1.06
14,GGGUCGCAUGGCGAUAAUCGCGUGGAUAUGGCACGCAAGUUUCUACCGGGCACCGUAAAUGUCCGACUGGAGCCGUUCGGGCGGCUAUAAACAGACCUCAGGCCCGAAGCGUGGCGGCACCUGCCGCCGGUGGUAAAAAAGAUCGGAAGAGCACACGUCU [U7C U8A G9U U10G U11G C13G],1.04
15,GGGUCGCAUUACCAUAAUCGCGUGGAUAUGGCACGCAAGUUUCUACCGGGCACCGUAAAUGUCCGACUGGAGCCGUUCGGGCGGCUAUAAACAGACCUCAGGCCCGAAGCGUGGCGGCACCUGCCGCCGGUGGUAAAAAAGAUCGGAAGAGCACACGUCU [U7C U8A G9U U11A],1.08
16,GGGUCGCAUUAGUAUAAUCGCGUGGAUAUGGCACGCAAGUUUCUACCGGGCACCGUAAAUGUCCGACUGGAGCCGUUCGGGCGGCUAUAAACAGACCUCAGGCCCGAAGCGUGGCGGCACCUGCCGCCGGUGGUAAAAAAGAUCGGAAGAGCACACGUCU [U7C U8A G9U U11A C12G C13U],1.15
17,GGGUCGCAUUAGGAUAAUCGCGUGGAUAUGGCACGCAAGUUUCUACCGGGCACCGUAAAUGUCCGACUGGAGCCGUUCGGGCGGCUAUAAACAGACCUCAGGCCCGAAGCGUGGCGGCACCUGCCGCCGGUGGUAAAAAAGAUCGGAAGAGCACACGUCU [U7C U8A G9U U11A C12G C13G],1.15
18,GGGUCGCAUUAGAAUAAUCGCGUGGAUAUGGCACGCAAGUUUCUACCGGGCACCGUAAAUGUCCGACUGGAGCCGUUCGGGCGGCUAUAAACAGACCUCAGGCCCGAAGCGUGGCGGCACCUGCCGCCGGUGGUAAAAAAGAUCGGAAGAGCACACGUCU [U7C U8A G9U U11A C12G C13A],1.17

# Reference: the RNAGym collection of RNA variant scans (doi:10.1021/acssynbio.7b00057)
